Assay results reported in US20100330066A1.

Target: murine BAFF (murine) (UniProt Q9WU72)
Test: cell-based or functional assay

Sequence of UniProt Q9WU72 (Q9WU72 127-309 limits assumed): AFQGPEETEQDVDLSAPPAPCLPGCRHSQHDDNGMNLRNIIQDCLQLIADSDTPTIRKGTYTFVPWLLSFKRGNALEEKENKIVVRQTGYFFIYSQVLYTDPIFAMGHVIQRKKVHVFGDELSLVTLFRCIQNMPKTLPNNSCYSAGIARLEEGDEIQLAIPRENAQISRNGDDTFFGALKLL

- B cell surface IgG2a/b expression (MFI, flow cytometry) in wildtype mice after BAFF-R:Fc treatment: 1.7 fold
- NF-κB2 transcription in spleen of wildtype mice, 2 days after i.p. BAFF-R:Fc (Affymetrix microarray): 1.82 fold
Substance: BAFF-R:Fc (BAFF-R Fc fusion protein) (from UniProt Q96RJ3 2-71)
